These are literature values, as cited in patent US9867860B2, “Formulations for preventing and treating decreasing platelet cell counts” (priority 2013, dated 2018).

For series [1], the system named is patients with ITP and liver disease. To be noted: for side effects: human, in vivo.
In series [2] the test system is refractory immune thrombocytopenia. The note with it: two cases; high-dose vitamin D supplementation and hydroxychloroquine in combination.
The next series concerns thrombocytopenia. To be noted: Vitamin B12 and folate together, deficiency.
Series [3] deals with patients with solid tumors who had previously received platelet transfusion because of myelosuppression. The note with it: randomized, placebo-controlled trial.
Series [4] has as its system thrombocytopenia associated with chemotherapy, HCV infection, or early liver cirrhosis.

For `CC1=NN(c2ccc(C)c(C)c2)C(=O)/C1=N\Nc1cccc(-c2cccc(C(=O)O)c2)c1O` [Eltrombopag], in series [1], the side effects result is “bone marrow fibrosis, thrombosis, and ocular toxicities”.

For the molecule `CCN(CCO)CCCC(C)Nc1ccnc2cc(Cl)ccc12` (stereo not shown) [hydroxychloroquine, reference compound], in series [2], the “treatment outcome of refractory immune thrombocytopenia” value was “successfully treated”.

For vitamin D, in series [2], the “treatment outcome of refractory immune thrombocytopenia” value is given as “successfully treated”.

Take Vitamin B12: the “correction of thrombocytopenia on repletion” value in the series with thrombocytopenia was “rapidly corrects”.

In the case of Romiplostim, the side effects result in series [1] was “bone marrow fibrosis, thrombosis, and ocular toxicities”. Also, the platelet count result in series [1] (patients with ITP and liver disease, continuous treatment) is given as “increase platelet count”.

B1: IL-11: recombinant human IL-11, cytokine stimulating megakaryocyte maturation (protein, UniProt P20809 22-199, looked up)
Interleukin-11: PGPPPGPPRVSPDPRAELDSTVLLTRSLLADTRQLAAQLRDKFPADGDHNLDSLPTLAMSAGALGALQLPGVLTRLRADLLSYLRHVQWLRRAGGSSLKTLEPELGTLQARLDRLLRRLQLLMSRLALPQPPPDPPAPPLAPPSSAWGGIRAAHAILGGLHLTLDWAVRGLLLLKTRL
As for B1, the “reduction of the number of patients in need of platelet transfusions” value in series [3] is recorded as 26%. In addition, the “platelet counts, IL-11 group versus peanut skins extract group” value with myelosuppressed mice (d7) was “significantly higher”. For the same molecule, in the series on myelosuppressed mice (d7, subcutaneous), the “platelet counts versus control thrombocytopenia group” value is on record as “significantly improved”. In the series with myelosuppressed mice (d10, subcutaneous), the platelet counts entry is on record as “further improved”. Also, in series [4] (human, in vivo), the other side effects entry is “dyspnea, atrial arrhythmias, syncope, and fatigue”; the “side effect: edema, share of patients” value is “more than 50 % of patients”. Besides, in series [4] (thrombocytopenia associated with chemotherapy, HCV infection, or early liver cirrhosis, in some degree), the correction of thrombocytopenia result was “could correct thrombocytopenia”.
